According to publication PMC10138814:

How the values were obtained:
[1] = biological target: mCherry-LaM1 complex (llama); test: ITC; 100 uM nanobody in the syringe into 10 uM mCherry (or 8.9 uM mCherry-LaM1 or mCherry-LaM3 complex) in the cell; 25 °C; one set of sites
[2] = biological target: mCherry-LaM3 complex (llama); test: as above

B1: LaM8 (VHH)
VHH: QVQLVESGGGLVQAGGSLRLSCAVSGRPFSEYNLGWFRQAPGKEREFVARIRSSGTTVYTDSVKGRFSASRDNAKNMGYLQLNSLEPEDTAVYYCAMSRVDTDSPAFYDYWGQGTQVTVST
[1]
  Kd: 54 nM
  dH: -10.3 kcal/mol
  stoichiometry N: 0.854 sites
[2]
  Kd: 236 nM
  dH: -9.99 kcal/mol
  stoichiometry N: 0.799 sites
